Data on 11 molecules can be found in patent publication US20200055939A1 (Genentech, published 2020).

Test [1] concerns the target MICA*004 on HCC1534 cells (human, UniProt Q29983 24-383). Nature of the test: cell-based or functional assay.
Test [2] concerns the target MICB*005 on HCC1534 cells (human). Nature of the test: cell-based or functional assay.
Test [3] concerns the target T1, MICA*008 on MEL-JUSO cells (human, UniProt Q29983 24-317).
T1 chain: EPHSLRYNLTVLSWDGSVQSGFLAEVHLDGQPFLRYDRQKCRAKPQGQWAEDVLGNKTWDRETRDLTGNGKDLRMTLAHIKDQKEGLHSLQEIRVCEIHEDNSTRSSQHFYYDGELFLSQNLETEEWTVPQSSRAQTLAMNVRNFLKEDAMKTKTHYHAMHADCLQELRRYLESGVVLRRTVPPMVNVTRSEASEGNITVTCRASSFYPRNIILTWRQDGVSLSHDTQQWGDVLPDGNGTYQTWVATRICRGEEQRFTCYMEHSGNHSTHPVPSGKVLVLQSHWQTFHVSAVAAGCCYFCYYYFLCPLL
The experiment in a line: cell-based or functional assay.

The target in the next test is T2, huMICA*002 alpha 3-his (human).
T2 construct: whole construct entry: GS, alpha 3 domain, GNS, His8; also called MICA002.His; MICA*002 alpha3 construct
T2 chain: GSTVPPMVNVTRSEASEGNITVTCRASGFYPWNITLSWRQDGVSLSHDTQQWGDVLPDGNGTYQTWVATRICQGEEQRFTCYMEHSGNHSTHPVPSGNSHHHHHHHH
The experiment in a line: SPR, Biacore 8K, antibody on Protein A chip. On the technique in general: Surface plasmon resonance follows binding to a sensor surface in real time, without labels.

Another test addresses T3, huMICA*004 alpha 3-his (human).
T3 construct: whole construct entry: GS, alpha 3 domain, GNS, His8; also called MICA004.His; MICA*004 alpha3 construct
T3 chain: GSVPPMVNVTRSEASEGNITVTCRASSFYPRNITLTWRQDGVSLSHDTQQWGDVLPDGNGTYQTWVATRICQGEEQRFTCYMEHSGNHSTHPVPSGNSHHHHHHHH
The experiment in a line: SPR, Biacore 8K, antibody on Protein A chip.

The next test addresses T4, huMICA*008 alpha 3-his (human).
T4 construct: whole construct entry: GS, alpha 3 domain (Thr204-Ser297), GNS, His8; also the construct of the FPOP experiment; also called MICA008.His; MICA*008 alpha3 construct
T4 chain: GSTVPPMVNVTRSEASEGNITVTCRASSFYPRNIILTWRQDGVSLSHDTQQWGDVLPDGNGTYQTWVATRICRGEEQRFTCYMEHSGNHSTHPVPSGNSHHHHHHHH
Nature of the test: SPR, Biacore 8K, antibody on Protein A chip.

Another test concerns the target T5, huMICB*005 alpha 3-his (human).
T5 construct: whole construct entry: GS, alpha 3 domain, GNS, His8; also called MICB005.His; MICB*005 alpha3 construct
T5 chain: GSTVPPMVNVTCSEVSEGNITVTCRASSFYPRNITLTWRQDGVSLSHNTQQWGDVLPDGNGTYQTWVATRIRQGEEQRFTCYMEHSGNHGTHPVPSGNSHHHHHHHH
Nature of the test: SPR, Biacore 8K, antibody on Protein A chip.

B1: 1D5v21 (antibody, IgG1, V domains shown)
VH: EIQLVQSGAEVKKPGASVKVSCKASGYAFTSQNIYWVRQAPGQGLEWIGYIEPYNVVPMYNPKFKGRATITVDKSTSTAYLELSSLRSEDTAVYYCARSGSSNFDYWGQGTLVTVSS
VL: DIQLTQSPSSLSASVGDRVTITCSASSSISSHYLHWYQQKPGKSPKLLIYRTSNLASGVPSRFSGSGSGTDYTLTISSLQPEDFATYYCQQGSSLPLTFGQGTKVEIK
notes: humanized variant of 1D5
As usually defined, the % Inhibition is the relative decrease from the control value, in per cent. For orientation: Kd means a measure of binding affinity in units of concentration. Consider B1, for which the “% Inhibition” value in test [1] stood at 55%; in test [2] it was 25%; in test [3], 62%. Also, the Kd in the test with huMICA*002 alpha 3-his amounted to 1.35 nM; in the test with huMICA*004 alpha 3-his, 1.08 nM; with huMICA*008 alpha 3-his it was 0.99 nM; with huMICB*005 alpha 3-his it was 1.98 nM.

B2: 1D5v26 (antibody, IgG1, V domains shown)
VH: EVQLVQSGAEVKKPGASVKVSCKASGYAFTSQNIYWVRQAPGQGLEWIGYIEPYNVVPMYNPKFKGRVTITRDKSTSTAYLELSSLRSEDTAVYYCARSGSSNFDYWGQGTLVTVSS
VL: DIQLTQSPSSLSASVGDRVTITCSASSSISSHYLHWYQQKPGKSPKLLIYRTSNLASGVPSRFSGSGSGTDYTLTISSLQPEDFATYYCQQGSSLPLTFGQGTKVEIK
notes: humanized variant of 1D5
Regarding B2, the “% Inhibition” value in test [1] turned out to be 37%; in test [2], 42%; in test [3] it was 50%. For the same molecule, the dissociation constant (Kd) in the test with huMICA*002 alpha 3-his was found to be 3.9 nM; in the test with huMICA*004 alpha 3-his it was 3.17 nM; with huMICA*008 alpha 3-his, 3.12 nM; with huMICB*005 alpha 3-his, 7.15 nM.

B3: 1D5v22 (antibody, IgG1, V domains shown)
VH: EIQLVQSGAEVKKPGASVKVSCKASGYAFTSQNIYWVRQAPGQGLEWIGYIEPYNVVPMYNPKFKGRATLTRDKSTSTAYLELSSLRSEDTAVYYCARSGSSNFDYWGQGTLVTVSS
VL: DIQLTQSPSSLSASVGDRVTITCSASSSISSHYLHWYQQKPGKSPKLLIYRTSNLASGVPSRFSGSGSGTDYTLTISSLQPEDFATYYCQQGSSLPLTFGQGTKVEIK
notes: humanized variant of 1D5
Regarding B3, the “% Inhibition” value was determined as 46% in test [1], 34% in test [2] and 57% in test [3]. Besides, the dissociation constant (Kd) with huMICA*002 alpha 3-his turned out to be 6.46 nM; with huMICA*004 alpha 3-his it was 5.45 nM; with huMICA*008 alpha 3-his, 4.98 nM; in the test with huMICB*005 alpha 3-his, 13.2 nM.

B4: 1D5v29 (antibody, IgG1, V domains shown)
VH: EIQLVQSGAEVKKPGASVKVSCKASGYAFTSQNIYWVRQAPGQGLEWIGYIEPYNVVPVYNPKFKGRATLTVDKSTSTAYLELSSLRSEDTAVYYCARSGSSNFDYWGQGTLVTVSS
VL: DIQLTQSPSSLSASVGDRVTITCSASSSISSHYLHWYQQKPGKSPKLLIYRTSNLASGVPSRFSGSGSGTDYTLTISSLQPEDFATYYCQQGSSLPLTFGQGTKVEIK
notes: humanized variant of 1D5
As for B4, the “% Inhibition” value is 40% in test [1], -8% in test [2] and 57% in test [3]. The Kd with huMICA*002 alpha 3-his was 2.01 nM; in the test with huMICA*004 alpha 3-his, 1.58 nM; with huMICA*008 alpha 3-his it was 1.65 nM; with huMICB*005 alpha 3-his, 3.86 nM.

B5: 1D5v25 (antibody, IgG1, V domains shown)
VH: EVQLVQSGAEVKKPGASVKVSCKASGYAFTSQNIYWVRQAPGQGLEWIGYIEPYNVVPMYNPKFKGRVTITVDTSTSTAYLELSSLRSEDTAVYYCARSGSSNFDYWGQGTLVTVSS
VL: DIQLTQSPSSLSASVGDRVTITCSASSSISSHYLHWYQQKPGKSPKLLIYRTSNLASGVPSRFSGSGSGTDYTLTISSLQPEDFATYYCQQGSSLPLTFGQGTKVEIK
notes: humanized variant of 1D5
As for B5, the “% Inhibition” value in test [1] was 46%; in test [2], 28%; in test [3], 62%. Besides, the equilibrium dissociation constant (Kd) came to 1.22 nM in the test with huMICA*002 alpha 3-his, 0.96 nM with huMICA*004 alpha 3-his, 0.93 nM with huMICA*008 alpha 3-his and 1.84 nM with huMICB*005 alpha 3-his.

B6: 1D5v24 (antibody, IgG1, V domains shown)
VH: EVQLVQSGAEVKKPGASVKVSCKASGYAFTSQNIYWVRQAPGQGLEWIGYIEPYNVVPMYNPKFKGRVTITVDKSTSTAYLELSSLRSEDTAVYYCARSGSSNFDYWGQGTLVTVSS
VL: DIQLTQSPSSLSASVGDRVTITCSASSSISSHYLHWYQQKPGKSPKLLIYRTSNLASGVPSRFSGSGSGTDYTLTISSLQPEDFATYYCQQGSSLPLTFGQGTKVEIK
notes: humanized variant of 1D5
As for B6, the results for the “% Inhibition” value in test [1], in test [2] and in test [3] were 50%, 43% and 65%, respectively. For the same molecule, the Kd with huMICA*002 alpha 3-his was 1.21 nM; with huMICA*004 alpha 3-his, 0.9 nM; in the test with huMICA*008 alpha 3-his, 1.41 nM; in the test with huMICB*005 alpha 3-his, 1.62 nM.

B7: 1D5v28 (antibody, IgG1, V domains shown)
VH: EIQLVQSGAEVKKPGASVKVSCKASGYAFTSQNIYWVRQAPGQGLEWIGYIEPYNVVPLYNPKFKGRATLTVDKSTSTAYLELSSLRSEDTAVYYCARSGSSNFDYWGQGTLVTVSS
VL: DIQLTQSPSSLSASVGDRVTITCSASSSISSHYLHWYQQKPGKSPKLLIYRTSNLASGVPSRFSGSGSGTDYTLTISSLQPEDFATYYCQQGSSLPLTFGQGTKVEIK
notes: humanized variant of 1D5
Consider B7, for which the “% Inhibition” value in test [1] was found to be 3%; in test [2], 36%; in test [3], 0%. For the same molecule, the Kd turned out to be 1.19 nM in the test with huMICA*002 alpha 3-his, 0.87 nM in the test with huMICA*004 alpha 3-his, 0.84 nM with huMICA*008 alpha 3-his and 1.49 nM with huMICB*005 alpha 3-his.

B8: 1D5v27 (antibody, IgG1, V domains shown)
VH: EIQLVQSGAEVKKPGASVKVSCKASGYAFTSQNIYWVRQAPGQGLEWIGYIEPYNVVPAYNPKFKGRATLTVDKSTSTAYLELSSLRSEDTAVYYCARSGSSNFDYWGQGTLVTVSS
VL: DIQLTQSPSSLSASVGDRVTITCSASSSISSHYLHWYQQKPGKSPKLLIYRTSNLASGVPSRFSGSGSGTDYTLTISSLQPEDFATYYCQQGSSLPLTFGQGTKVEIK
notes: humanized variant of 1D5
As for B8, the entries for the “% Inhibition” value in test [1], in test [2] and in test [3] were 53%, -8% and 69%, respectively. For the same molecule, the dissociation constant Kd is 1.85 nM with huMICA*002 alpha 3-his, 1.52 nM in the test with huMICA*004 alpha 3-his, 1.44 nM with huMICA*008 alpha 3-his and 3.31 nM with huMICB*005 alpha 3-his.

B9: 1D5v23 (antibody, IgG1, V domains shown)
VH: EIQLVQSGAEVKKPGASVKVSCKASGYAFTSQNIYWVRQAPGQGLEWIGYIEPYNVVPMYNPKFKGRATLTVDTSTSTAYLELSSLRSEDTAVYYCARSGSSNFDYWGQGTLVTVSS
VL: DIQLTQSPSSLSASVGDRVTITCSASSSISSHYLHWYQQKPGKSPKLLIYRTSNLASGVPSRFSGSGSGTDYTLTISSLQPEDFATYYCQQGSSLPLTFGQGTKVEIK
notes: humanized variant of 1D5
With B9, the entries for the “% Inhibition” value in test [1], in test [2] and in test [3] were 50%, 38% and 63%, respectively. The Kd turned out to be 1.11 nM with huMICA*002 alpha 3-his, 0.9 nM with huMICA*004 alpha 3-his, 0.58 nM with huMICA*008 alpha 3-his and 1.65 nM in the test with huMICB*005 alpha 3-his.

B10: 13A9v2 (antibody, IgG1, V domains shown)
VH: EVQLVQSGAEVKKPGASVKVSCKASGYAFTNYLIEWVRQAPGQGLEWIGAINPGSGATNYNEKFKDRATLTADKSTNTAYLELSSLRSEDTAVYFCARFLGNYFDNWGQGTLVTVSS
VL: DIQMTQSPSSLSASVGDRVTITCRASGNIHSYLAWYQQKPGKAPKLLIYYAETLADGVPSRFSGSGSGTDFTLTISSLQPEDFATYYCQQFWTTPYTFGQGTKVEIK
notes: humanized variant of 13A9
Take B10: the “% Inhibition” value in test [1] came to 10%; in test [2], 60%; in test [3], 12%. Moreover, the Kd with huMICA*002 alpha 3-his was 4.44 nM; in the test with huMICA*004 alpha 3-his, 5.32 nM; with huMICA*008 alpha 3-his, 2.56 nM; in the test with huMICB*005 alpha 3-his, 3.15 nM.

B11: 13A9v1 (antibody, IgG1, V domains shown)
VH: EVQLVQSGAEVKKPGASVKVSCKASGYAFTNYLIEWVRQAPGQGLEWIGAINPGSGATNYNEKFKDRVTITADTSTSTAYLELSSLRSEDTAVYYCARFLGNYFDNWGQGTLVTVSS
VL: DIQMTQSPSSLSASVGDRVTITCRASGNIHSYLAWYQQKPGKAPKLLIYYAETLADGVPSRFSGSGSGTDFTLTISSLQPEDFATYYCQQFWTTPYTFGQGTKVEIK
notes: humanized variant of 13A9
Consider B11, for which the “% Inhibition” value was 12% in test [1], 43% in test [2] and 10% in test [3]. Besides, the dissociation constant (Kd) in the test with huMICA*002 alpha 3-his is 5.87 nM; in the test with huMICA*004 alpha 3-his, 8.37 nM; with huMICA*008 alpha 3-his it was 5.6 nM; in the test with huMICB*005 alpha 3-his, 5.12 nM.
